We go through two molecules from publication PMC10613268, “Shade-induced RTFL/DVL peptides negatively regulate the shade response by directly interacting with BSKs in Arabidopsis” (Nature Communications, 2023).

What all share (conditions): both partners purified
The target in experiment [1] is T1, GST-BSK3 WT (Arabidopsis, UniProt Q8W4L3 1-489).
T1 construct: BSK3, Arabidopsis; full-length coding region cloned into pGEX4-T-1; source: E. coli BL21 (DB3), purified; not shown: GST, N-terminal, kept
T1 sequence (Q8W4L3 whole entry): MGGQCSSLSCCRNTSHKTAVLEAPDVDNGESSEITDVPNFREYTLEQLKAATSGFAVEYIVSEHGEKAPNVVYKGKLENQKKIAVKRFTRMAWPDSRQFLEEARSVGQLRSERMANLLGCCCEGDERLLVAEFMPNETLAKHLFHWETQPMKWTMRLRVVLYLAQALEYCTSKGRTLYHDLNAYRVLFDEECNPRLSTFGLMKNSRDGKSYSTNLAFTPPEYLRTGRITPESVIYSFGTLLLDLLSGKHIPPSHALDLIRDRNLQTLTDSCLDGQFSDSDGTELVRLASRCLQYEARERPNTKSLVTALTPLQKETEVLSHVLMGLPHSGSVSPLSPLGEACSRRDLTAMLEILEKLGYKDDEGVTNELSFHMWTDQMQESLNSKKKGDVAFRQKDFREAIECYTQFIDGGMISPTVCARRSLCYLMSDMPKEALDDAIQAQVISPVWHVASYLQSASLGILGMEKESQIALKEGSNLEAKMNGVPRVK
Briefly: pull-down; in vitro (Fig. 4e): Sumo-His-RTFL18 on Ni-NTA beads, then GST or GST-BSK3/BSK6, 4 °C 2 h, 1 × PBS with 1 mM DTT; blot anti-GST, anti-His.

For experiment [2], the target named is T2, GST-BSK6 (Arabidopsis, UniProt Q9M324 1-490).
T2 construct: BSK6, Arabidopsis; full-length coding region cloned into pGEX4-T-1; source: E. coli BL21 (DB3); not shown: GST, N-terminal, kept
T2 sequence (Q9M324 whole entry): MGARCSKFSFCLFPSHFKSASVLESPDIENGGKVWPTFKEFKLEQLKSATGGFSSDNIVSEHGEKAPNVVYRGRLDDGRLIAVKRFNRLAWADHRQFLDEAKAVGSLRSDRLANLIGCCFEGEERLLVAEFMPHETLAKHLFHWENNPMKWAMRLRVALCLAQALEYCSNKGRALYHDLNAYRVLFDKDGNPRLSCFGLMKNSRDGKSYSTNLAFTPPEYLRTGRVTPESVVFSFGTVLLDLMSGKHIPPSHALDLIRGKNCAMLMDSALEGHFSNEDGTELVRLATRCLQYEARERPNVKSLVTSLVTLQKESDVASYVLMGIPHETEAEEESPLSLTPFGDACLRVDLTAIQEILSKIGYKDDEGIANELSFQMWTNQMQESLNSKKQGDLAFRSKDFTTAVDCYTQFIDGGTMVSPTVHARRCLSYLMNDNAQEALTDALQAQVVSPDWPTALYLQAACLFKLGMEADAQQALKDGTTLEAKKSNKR
The description is as above.

In experiment [3] the target is T1, GST-BSK3 WT. Briefly: pull-down; in vitro (Fig. 4l): purified GST-BSK3 WT on glutathione beads, then His-RTFL18 (WT, M1, M2), 4 °C 2 h, 1 × PBS with 1 mM DTT; blot anti-His, anti-GST.

B1: Sumo-His-RTFL18 (peptide, UniProt Q6X5V0 1-51, looked up)
chain: MEMKRVMMSSAERSKEKKRSISRRLGKYMKEQKGRIYIIRRCMVMLLCSHD
notes: RTFL18 (DVL1), Arabidopsis; full-length coding region cloned into a pET-SUMO vector; source: E. coli BL21 (DB3); not shown: SUMO, N-terminal, kept; His, N-terminal, kept
With B1, the binding result in experiment [1] and in experiment [2] was “binds” in each case.

B2: His-RTFL18 WT (peptide, UniProt Q6X5V0 1-51, looked up)
chain: MEMKRVMMSSAERSKEKKRSISRRLGKYMKEQKGRIYIIRRCMVMLLCSHD
notes: RTFL18 (DVL1), Arabidopsis; full-length coding region cloned into a pET-SUMO vector; also called 6His-RTFL18 WT (wild type); source: E. coli BL21 (DB3), purified; not shown: His6, N-terminal, kept
As for B2, in experiment [3], the binding result was “binds”.
